# Reference: patent US20200254071A1, “COMPOSITIONS AND METHODS FOR THROMBOEMBOLISM DISSOLUTION” (priority 2016, published 2020)
# B1: nattokinase: naturally occurring proteolytic enzyme derived from natto, soybeans fermented with Bacillus subtilis natto (protein, UniProt P35835 107-381, looked up)
# Subtilisin NAT: AQSVPYGISQIKAPALHSQGYTGSNVKVAVIDSGIDSSHPDLNVRGGASFVPSETNPYQDGSSHGTHVAGTIAALNNSIGVLGVAPSASLYAVKVLDSTGSGQYSWIINGIEWAISNNMDVINMSLGGPTGSTALKTVVDKAVSSGIVVAAAAGNEGSSGSTSTVGYPAKYPSTIAVGAVNSSNQRASFSSVGSELDVMAPGVSIQSTLPGGTYGAYNGTSMATPHVAGAAALILSKHPTWTNAQVRDRLESTATYLGNSFYYGKGLINVQAAAQ
# Experiments:
# [1] = test system: thrombus or embolus in cats; details: cited from earlier work
# [2] = test system: thrombus or embolus in cats with ATE; details: cited from earlier work
# [3] = purified form; cited from earlier work
# [4] = in vivo
# Procedure: To ensure the efficacy of these two thrombolytic agents, an enteric coating is appropriate for some orally administered embodiments. The enteric coating allows the nattokinase and rutin bioflavonoid to travel through the acidic environment of the stomach without being dissolved. Nattokinase and rutin can then be absorbed into the bloodstream or circulation via the small intestine. Once absorbed, nattokinase remains active in the bloodstream for approximately 12 hours. In one embodiment, the enteric coating is composed of methacrylic acid copolymer and triethyl citrate. Additional ingredients may include, for example, arabinoglactan, microcrystalline cellulose, maltodextrin, stearic acid, croscarmellose sodium, silicon dioxide. During this clinical trial, participants were not on any other thrombolytic or fibrinolytic (blood thinning) agents.
# [5] = test system: fibrinolytic activity in the plasma; assay: oral administration of nattokinase: fibrinolytic activity in the plasma; format: in vivo
# Text: There are no known studies that examine the efficacy of nattokinase as a thrombolytic agent in cats.
# blood clots = assay: thrombolytic activity of the single agents, inventor's private research study; format: in vivo; details: single agent
# Text: However, both agents can be dissolved in stomach acids, rendering certain dosage forms nearly useless as thrombolytic agents. This may explain why the potency of previous oral thrombolytics is decreased in comparison to injected thrombolytic agents. Enteric coatings reduce the active ingredients' rate of digestion in stomach acids, leading to enhanced efficacy of the active ingredient(s).
# [6] = test system: artificially induced thrombosis; details: dogs, capsules orally; cited from earlier work
molecule,measurement,setting,value
"tPA: tissue-plasminogen activator, veterinary drug with the potential to dissolve a thrombus or embolus",fatal complications due to metabolic acidosis and hyperkalemia,[1]; cats with ATE,70%
same,cats with perfusion restored to their limbs,[1]; fraction of cats given the drug,about two-thirds
streptokinase: veterinary drug with the potential to dissolve a thrombus or embolus,cats with pulses restored,[2]; fraction of 46 cats,about half
same,cats with motor function returned to their limbs,[2]; within 24 hours,30%
B1,optimum pH of enzyme,[3],7
same,optimum temperature of enzyme,[3],37 °C
same,time active in the bloodstream,[4],approximately 12 hours
same,fibrinolytic activity in the plasma and production of tissue plasminogen activator,[5],mild and frequent enhancement
same,thrombolytic activity,blood clots,demonstrated thrombolytic activity
same,lysis of the thrombi by angiography,[6],lysis of the thrombi was observed
